From the RNAGym collection of RNA variant scans (doi:10.7554/elife.80360)

B1: HDV Ribozyme (parent)
chain: GGCCGGCAUGGUCCCAGCCUCCUCGCUGGCGCCGGCUGGGCAACAUUCCGAGGGGACCGUCCCCUCGGUAAUGGCGAAUGGGACCCA

Variants of: B1
Assay: self-cleavage, relative activity (ratio to wild type); higher = more cleavage; co-transcriptional

Point of comparison: C61U A83G, self-cleavage 0.692. Against it:
- C61U U79A — higher, 0.88
- C62A U69C — higher, 0.882
- C62A U69A — higher, 0.997
- C62A U69G — higher, 1.03
- C62G G74A — lower, 0.402
- C62G G74U — lower, 0.372
- C62G G74C — lower, 0.172
- C61A C84U — higher, 0.831
- C61A C84A — higher, 0.831
- U60C A71U — lower, 0.665
- U60G C63G — lower, 0.293
- U60G C63U — higher, 0.982
- C62U G81U — lower, 0.529
- C62U G81C — lower, 0.215
- C61A C85G — higher, 0.988
- C61U A78C — lower, 0.182
- C61U C86G — higher, 0.847
- C61U C86U — higher, 1.03
- U60C G68C — higher, 0.755
- U60C G68U — higher, 1.2
- U60C G68A — higher, 0.81
- U60G G76A — higher, 1.08
- C61G U79A — higher, 0.739
- C61G U79C — lower, 0.499
- C61G U72G — lower, 0.332
- C61G U72A — lower, 0.457
- C61G U72C — lower, 0.401
- U60G G80C — lower, 0.141
- U60G G80A — lower, 0.286
- U60C U65G — higher, 0.944
- U60C U65C — higher, 1.01
- U60G C84U — higher, 0.798
- U60G C84A — higher, 0.752
- U60G C84G — higher, 0.902
- C61G G76C — higher, 0.967
- C61U A70C — higher, 0.892
- C61U A70G — higher, 1.01
- C62A G67U — lower, 0.464
- C62A G67C — higher, 0.78
- C62A G67A — lower, 0.578
- C62G C63G — higher, 0.706
- C62G C63U — lower, 0.604
- C62G C63A — lower, 0.639
- U60C C75A — lower, 0.237
- U60C C75G — lower, 0.128
- C63A C64U — higher, 0.903
- C63A C64G — lower, 0.506
- C61U G76U — higher, 1.06
- C61U G76C — higher, 1.05
- C61U G76A — higher, 1.19
- U60C G76U — higher, 1.05
- U60C G76C — higher, 1.16
- U60C G76A — higher, 1.05
- C61A A87G — higher, 1
- C61A A87C — higher, 1.07
- C61A A87U — higher, 0.978
- U60G U65G — higher, 0.883
- C62A C66A — lower, 0.32
- C62A C66G — lower, 0.623
- C61G C85U — higher, 1.04
- C61G C85A — higher, 0.935
- C61G C85G — higher, 0.906
- C63A C75A — lower, 0.338
- C63A C75U — lower, 0.0906
- U60C U72G — higher, 0.767
- U60C U72A — higher, 0.755
- C62U C75G — lower, 0.406
- C62U C75A — lower, 0.166
- U60C U79C — lower, 0.326
- C62U G80A — lower, 0.348
- C62U G80C — lower, 0.281
- C62U G80U — lower, 0.253
- C61U G80C — lower, 0.115
- C61A G80C — lower, 0.201
- C61A G80U — lower, 0.203
- C61A G80A — lower, 0.41
- C61U G74U — lower, 0.554
- C61A U72A — higher, 0.745
- C61U C64A — higher, 0.89
- C61A G81A — lower, 0.354
- C61A G81U — lower, 0.347
- U60G G81A — lower, 0.269
- U60G G81C — lower, 0.268
